The values below come from a protein production outcome set (Wang et al. 2014).

This series in a line: label from the status in PepcDB records.
For the sequence “MAFITGAARGQGRSHAVRLAAEGADIIACDICAPVSASVTYAPASPEDLDETARLVEDQGRKALTRVLDVRDDAALRELVADGMEQFGRLDVVVANAGVLSWGRVWELTDEQWDTVIGVNLTGTWRTLRATVPAMIEAGNGGSIVVVSSSAGLKATPGNGHYSASKHGLTALTNTLAIELGEYGIRVNSIHPYSVETPMIEPEAMMEIFARHPSFVHSFPPMPVQPNGFMTADEVADVVAWLAGDGSGTLTGTQIPVDKGALKY”, the protein production result is recorded as “failed”.

As to “MAFLDKIKSAVIAEWHTHKILPSLTAAQAILESGWGKYAPHNALFGIKADSSWTGKSFNTKTQEEYQPGIVTDIVDRFRAYDSWEDSIADHGQFLVDNPRYKAVIGEADYKKACHAIKDAGYATASGYAELLIQLIEENNLQEWDAEAIKNKEEQMISSQCREVIEFFINLANAGVGVDKDSFAGWQCADVPCYAAKHWFGVDLWGNAIDLLDSAAAVGWEVHRMPTDANPRTGAFFVQSVPCHQFGHTGIVIEDSDGYTMRTVEQNIDGNPDALYVGAPARFNTRDFTGVLGWFYPPYQGDIVTQPVSTEPQNSDTIVETPKTGTFTLDVAEINIRRWPSLASEVVGSYKQGDTVSFDSEGYANGYYWISYVGGLGMRNYLAIGQTDKDGNRISIWGKLN”, the protein production entry is on record as “failed”. Then “MAFSDDLPPPPRVNDHVKTRRNRKRRTIKTKQLEELISTATRAAHVARDKGFYIVSPEAIQCVEILRHMRTLPLNARLITKTDGLRVLLFLSKNGNPKIRSESKAVIDHWKSILHTKVH”, with “failed”. “MAFSGSQAPYLSPAVPFSGTIQGGLQDGLQITVNGTVLSSSGTRFAVNFQTGFSGNDIAFHFNPRFEDGGYVVCNTRQNGSWGPEERKTHMPFQKGMPFDLCFLVQSSDFKVMVNGILFVQYFHRVPFHRVDTISVNGSVQLSYISFQNPRTVPVQPAFSTVPFSQPVCFPPRPRGRRQKPPGVWPANPAPITQTVIHTVQSAPGQMFSTPAIPPMMYPHPAYPMPFITTILGGLYPSKSILLSGTVLPSAQRFHINLCSGNHIAFHLNPRFDENAVVRNTQIDNSWGSEERSLPRKMPFVRGQSFSVWILCEAHCLKVAVDGQHLFEYYHRLRNLPTINRLEVGGDIQLTHVQT”: the protein production entry is reported as “not failed”.

Turning to “MAFSTDDTLWREFLQVWPLERLREMTLAEYTTAGDKDCFVYWLEFRLVDYGSIAGGSAFKFAIFSRKETGAREGDTSLAYDDRYGWYRRFGTSPEEAFQTIRGHVVAVAEAARDGRLDEIDNSPLGAAYRWKIAFHYQPLRNPSTPCVYVRKPLLHFLGLSAADTTTPQSELYQALARLRQADESIFVFSERLWKDWVADTPFVVKLSEGAIKHGYLPVNLISAPFPETMYGGKTPNEAADVAHFRTDTGLEFDTDLRVSSPGSARLRHRLGGYFEDIGAAAGDLITLTQDGDGTYLLSSKLAVHAIGPTASAATITARASVKEAAAVRPPLNQILFGPPGTGKTYEAIEKALEILDPSFLLQLGDDESNERRRALKRRYDELAKEGLVQFVTFHQSFSYENFVEGLSASSDPDTKQVRYEVEDGVFKELCESARTRLVRRSDDAPLELSGRRIWKLSLGDSITEGHIFEECMEKGLALMGFGNNADFSQCQSREDIQKMFAASGEPLSLGAYPITAIKTFVCQMKLGDLIVVSEGNLKFRAIGEITGDYQLLPRDSDTYSQARPVRWLRGYKPALPYGALMENRFSQMTVYELRAGSIDHDKFRELLKSECIATGADRPHVLIIDEINRGNVSRIFGELITLIEPSKRSGAAEALEVLLPYSKDPFSVPDNVYLIGTMNTADRSLAGLDIALRRRFDFVEMAPRPDKLTGVKVAEIDISAVLETMNRRIEVLLDREHRLGHAYFMSLENSNDLSRLSNIFRQQIIPLLQEYFFEDWQRIAWILNDHRKDERFRFIVPAPYSVDSLFGDTGQVAQDSKAWRMNEEAFHKPQSYLGIVGDGKV”, the protein production result is reported as “failed”. With “MAFTPFPPRQPTASARLPLTLMTLDDWALATITGADSEKYMQGQVTADVSQMAEDQHLLAAHCDAKGKMWSNLRLFRDGDGFAWIERRSVREPQLTELKKYAVFSKVTIAPDDERVLLGVAGFQARAALANLFSELPSKEKQVVKEGATTLLWFEHPAERFLIVTDEATANMLTDKLRGEAELNNSQQWLALNIEAGFPVIDAANSGQFIPQATNLQALGGISFKKGCYTGQEMVARAKFRGANKRALWLLAGSASRLPEAGEDLELKMGENWRRTGTVLAAVKLEDGQVVVQVVMNNDMEPDSIFRVRDDANTLHIEPLPYSLEE”, the protein production entry is recorded as “not failed”. With “MAFVRYIPCRKIPRNVDQFELPCLGSLRAFFSTQKLIGDEPVLVRDFIHTALYDPIQGYFSQRSKSVGVLERSIKFNQLEGRKAYMKLLEKVYKQSDISWFTPVELFKPWYAHGIAEAILRTTNLSVPLKGVLDYIMLNAPERIYKNMSYTSIEISPSLAKIQKETVAQVGSHLSKFRVECRDASDLAGWSKVLFVQHKADSGFQFPVAMLEFENVEQQPCWVIMLEVLDNLPHDLVYSKSQLSPWMEVLVENKPESEALSELYKPLEDPLIKRCIEIVEHEDDPKLLEVLHAKLPKMSLIASDFSFLPDVKVPGERAPLVSTKKDGCSSDYSSYLDAKGDADIFFPTDFWLLERMDHYCSGWRKMEKDGTPSKKGRKRRTLTVNQDSL”, the protein production entry is recorded as “failed”.

For “MAGAMIEARGLVKRFVSGRIRRRVVEALKGVSFSVYEGEIYSFLGPNGAGKTTTVRILSTLLDPDGGEARVAGFDVVKERWEVRKRIGVMLSVERGFYWKLTGRENLYYFGRIYGIPQGELKSRIKEVLDLVGLTDLGGADKPFEEMSLGMKARLGLARVLLKDPEVLILDEPTLGLDPASARTIRGVIRSLASEGRTIFITTHNMVEAEMISDRVGIIIGGRIAMEGTPDELKRRVFSSINLEFRVKASGHAAKKFFYDVKGEYGNRIVGGVTFSDGILTFRVSVNRDEPAEPIIDRITRLAYQYRFKILEIKALEPSLEDVFVAVSESGEARSGRVKGSIAQRLEHHHHHH”, the protein production entry is on record as “not failed”. Under “MAGEQIKPVASGLLVLNFCMYVIVLGIGGWAMNRAIDHGFEVGPNLELPAHFSPIYFPMGNAATGFFVIFALLAGVVGAASTISGLSHIRSWTVGSLPAAATAATIAWTLTVLAMGFAWKEIELQGRNAKLRTMEAFLIILSVTQLIYIAAVHGVRRP” stands “failed”; under “MAGFISNFFGVGDSDSQYEEPTEASQAAAPTESATNTRSTPKVVPMQGGKSVNSKIALFEPKIYSDVKEIATQLLKNQAVIINFDHVDDEMARRIVDFLTGTVFAINGEIERIGDEIFLCIPENYEVSGSTTSQFDTSKLLEHHHHHH”, “not failed”; under “MAGFPELVVLDPPWDKELAAGTESQALVSATPREDFRVRCTSKRAVTEMLQLCGRFVQKLGDALPEEIREPALRDAQWTFESAVQENISINGQAWQEASDNCFMDSDIKVLEDQFDEIIVDIATKRKQYPRKILECVIKTIKAKQEILKQYHPVVHPLDLKYDPDPAPHMENLKCRGETVAKEISEAMKSLPALIEQGEGFSQVLRMQPVIHLQRIHQEVFSSCHRKPDAKPENFITQIETTPTETASRKTSDVVLKRKQTKDCPQRKWYPLRPKKINLDT”, “failed”.

Turning to “MAGFSSLIPRTLLKRAVSSATRNLTAPLASISAARNLFIGGGCDENYGEPGVFSHSNGIRKYNTVGNAGALTGPFHHLLGVNQTNKPAFLRVQSMSYQFVADSHSSPKRIVKNEDEEDFSDSSKKGNAENPRKHQIGENIPKKDKIKFLVNTLLDIEDNKEAVYGALDAWVAWERNFPIASLKIVIASLEKEHQWHRMVQVIKWILSKGQGNTMGTYGQLIRALDMDRRAEEAHVIWRKKVGNDLHSVPWQLCLQMMRIYFRNNMLQELVKLFKDLESYDRKPPDKHIVQTVADAYELLGMLDEKERVVTKYSHLLLGTPSDDKPSRSSRKKKKPELRIPEATTEGAVDAAKAEIQEERKENLDNHQESEAATEKQFEHGA”, the protein production result was “failed”.

For the sequence “MAGGVDGPIGIPFPDHSSDILSGLNEQRTQGLLCDVVILVEGREFPTHRSVLAACSQYFKKLFTSGAVVDQQNVYEIDFVSAEALTALMDFAYTATLTVSTANVGDILSAARLLEIPAVSHVCADLLDRQIL”, the protein production result is “failed”. Under “MAGHSHWAQIKHKKAKVDAQRGKLFSKLIREIIVATRLGGPNPEFNPRLRTAIEQAKKANMPWENIERAIKKGAGELEGEQFEEVIYEGYAPGGVAVMVLATTDNRNRTTSEVRHVFTKHGGNLGASGCVSYLFERKGYIEVPAKEVSEEELLEKAIEVGAEDVQPGEEVHIIYTVPEELYEVKENLEKLGVPIEKAQITWKPISTVQINDEETAQKVIKLLNALEELDDVQQVIANFEIPEEILQKVG” stands “not failed”. As to “MAGIKVFGHPASTSTRRVLIALHEKNLDFELVHVELKDGEHKKEPFLSRNPFGQVPAFEDGDLKLFESRAITQYIAHRYENQGTNLLPADSKNIAQYAIMSIGIQVEAHQFDPVASKLAWEQVFKFNYGLNTDQAVVAEEEAKLAKVLDVYEARLKEFKYLAGETFTLTDLHHIPVIQYLLGTPTKKLFTERPRVNEWVAEITKRPASEKVL”, the protein production entry was “failed”.

With “MAGQSDRKAALLDQVARVGKALANGRRLQILDLLAQGERAVEAIATATGMNLTTASANLQALKSGGLVEARREGTRQYYRIAGEDVARLFALVQVVADEHLADVAVAAADVLGSPEDAITRAELLRRREAGEVTLVDVRPHEEYQAGHIPGAINIPIAELADRLAELAGDRDIVAYCRGAYCVMAPDAVRIARDAGREVKRLDDGMLEWRLAGLPVDEGAPVGHGD”, the protein production result is “failed”. Under “MAGRRRWSTEQILDAAAELLLAGDAETFSVRKLAASLGTDSSSLYRHFRNKTELLRAVADRILLSAMDGYRPEGDWKQRLTAVALRLRESFGQQPQLAAVWGRHGSGGTGSRLMMEEVLQALRASGLPDDEIPARYHRLVILISSLITAEGGFGAVGAQEHEQGMEQFRVAVLGADPERFPALSHFAREIRPLGADRGAAFEEILAAHLAHLEAAAP” stands “not failed”; under “MAGTTQGAKTLYDKLWDDHLVSQRDDGSCLIYIDRHLLHEVTSPQAFEGLQLAGRQPWRLNANIATPDHNVPTSKKEREQGIAGIEDDTSRIQVQTLDDNCKTFNIVEFGINDIRQGIVHVVGPEQGLTLPGMTVVCGDSHTATHGAFGCLAHGIGTSEVEHVLATQCLIQKKSKNMLIRVDGQLGKGVTPKDVVLAIIGKIGTAGGTGYAIEFGGQVFRDMSIEGRMTVCNMAIEAGARVGMVAVDDKTIEYVQSRHYAPKGEQWDQAVAYWNTLHSDDDAVFDEVVVLNGAEIEPQVSWGTSPEMVIPVSQAVPTLEQAKDDVQRNDWTRAYQYMGLTAGQALADIQLDRVFIGSCTNSRIEDIRAAAEVVKGRKVASSIKQAMIVPGSGLVKQQAEQEGLDQVFLEAGFEWREPGCSMCLAMNSDKLQPGEHCASTSNRNFEGRQGNGGRTHLVSPAMAAAAAIAGHFVDVRSF”, “failed”; under “MAGVCGSKLMMARLVGMPDLFSDSGWGSGELPRALRPGLVHLPRWMGLDQQFAVVQQCREIARSVAGTPLAMHRQQWASGTMSAYLMSLGLHWEYRTYQYVSQWGGVAVPPIPVEFSALAHEVLRAAAGVDDSLAAWVDSYRIDAALVNYYPPGAGMGMHQDAFEDSRAPVVSLSIGDSAVFRAGNGVNRQRPWQDVVLGSGDAVVFGGPSRDMFHSVVRLHAGTAPTRCGVSQGRINLTFRQVKL”, “failed”.
